Experimental data: article PMC3466194

Target: TetR (Tet Repressor) (UniProt P04483)
Experiment: not stated in material (in vitro binding)
Settings: not given in the material held (binding assay methods absent)

TetR (Tet Repressor), sequence (P04483 whole entry): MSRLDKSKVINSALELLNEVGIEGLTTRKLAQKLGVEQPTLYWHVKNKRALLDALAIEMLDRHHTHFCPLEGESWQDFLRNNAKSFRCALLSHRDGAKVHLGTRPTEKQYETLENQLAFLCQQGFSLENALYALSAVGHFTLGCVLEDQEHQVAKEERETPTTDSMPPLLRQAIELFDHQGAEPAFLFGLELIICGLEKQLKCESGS

GGGCUUGUUACCAGACAACCAUUACUUAUCCUAUCAAUCUGCCUUAUCCAAAGAUCCAAACGAAAAGAGAGACCACAUGGUCUUGUUAGAAUUUGUUACUUAAUCUAGAAAUUAUCUAGGAUCCAGGCAGAGAAAGGUCGAUACGGACGGAAUGUGAUGGCCUGGAUCCAACACAAAACUCGAGAACAUCCCGGGAAAAUCUAGAAUUCCUUCGAUAGAUCAAUUUUUUUCUUUUCUCUUUCCCCAUCCUUUACGCUAAAAUAAUAGUUUAUUUUAUUUUUUGAAUAUUUUUUAUUUAUAUACGUAUAUAUAGACUAUUAUUUAUCUUUUAAUGAUU [3'UTR + aptamer (vYFPΔ-5-1.2 bases 613-946)]
Kd: 0.8 nM
